Patent EP4556905A1 (Agencia Estatal Consejo Superior De Investigaciones …, dated 2025)

B1: Human PHOX2B transcription factor fragment comprising 23 alanine residues (XS23) (other)
chain: GPGGPGGEPGKGGAAAAAAAAAAAAAAAAAAAAAAAGGLAAAGGPGQGWAPGPGPITSIPDSLGGPFASVLSSLQRPNGAKAALVKSSMF
notes: XS fragment of human PHOX2B with the polyAla tract expanded from 20 to 23 alanines; Made as a thioredoxin-His6-TEV fusion and cleaved with TEV; also called +3 Ala variant
B2: Human PHOX2B transcription factor fragment comprising 26 alanine residues (XS26) (other)
chain: GPGGPGGEPGKGGAAAAAAAAAAAAAAAAAAAAAAAAAAGGLAAAGGPGQGWAPGPGPITSIPDSLGGPFASVLSSLQRPNGAKAALVKSSMF
notes: C-terminal fragment of human PHOX2B (XS construct, 228-314 in wild-type numbering) with the polyAla tract expanded from 20 to 26 alanines (241-266); Made in E. coli as a thioredoxin-His6-TEV fusion and cleaved with TEV; 15N/13C-labelled for NMR; For microscopy a C315 mutant tagged with ATTO-488 or ATTO-565 was mixed 1:400-1:600 with the unlabelled protein; also called +6 Ala variant; expanded …
B3: Human PHOX2B transcription factor fragment comprising 20 alanine residues (XS20) (other)
chain: GPGGPGGEPGKGGAAAAAAAAAAAAAAAAAAAAGGLAAAGGPGQGWAPGPGPITSIPDSLGGPFASVLSSLQRPNGAKAALVKSSMF
notes: Fragment of residues 228-314 of human PHOX2B, polyAla tract at 241-260; Made as a thioredoxin-His6-TEV fusion and cleaved with TEV; For microscopy a C315 mutant tagged with ATTO-488 or ATTO-565 was mixed 1:400-1:600 with the unlabelled protein; also called wild type PHOX2B fragment; wt PHOX2B (20 alanines)

Assays:
[1] = biological target: Human PHOX2B transcription factor fragment comprising 26 alanine residues (XS26) (human) (UniProt Q99453); test: 13C-HSQC NMR titration, 0.1 mM XS26, 1:1 molar ratio, 25°C
[2] = biological target: Human PHOX2B transcription factor fragment comprising 26 alanine residues (XS26) (human) (UniProt Q99453); test: CACO NMR, 0.225 mM XS26 incubated 48 h at 25°C with 0.45 mM HSP70 (1:2)
[3] = biological target: the molecule itself; test: 15N spin relaxation, self-association
[4] = biological target: B2; test: confocal fluorescence microscopy, colocalisation in condensates
[5] = biological target: the molecule itself; test: 15N spin relaxation, overall correlation time, self-association

Row | Molecule | decrease of NMR signal intensity, polyAla moieties in disordered conformation [1] [%] | decrease of NMR signal intensity, polyAla tract in α-helical conformation [1] [%] | binding result [3] | other results
1 | Human HSP72 (named HSP70) (from UniProt P54652 1-639) | > 50 | < 20 |  | decrease of the population of nascent disordered alanines (CACO signal intensity) [2]: 50%
2 | Human HSP90β (named HSP90) (from UniProt P08238 1-724) | > 50 | < 40 |  | 
3 | B1 |  |  | binds | 
4 | B2 |  |  | binds | 
5 | B3 |  |  |  | binding result [4]: binds; binding result [5]: binds
